The source of these data is US20240026407A1, “MODIFICATION OF SAPONINS” (GLAXOSMITHKLINE BIOLOGICALS SA, priority 2020, published 2024).

B1: 1063 (protein, listed as Parabacteroides distasonis)
chain: MNNKINDATMRIKQSIYIYAFAALLLGGCKSNNELTIPTNLRTEYLTEPIGLDTSSPRFTWEYSGNEEGFKASRYEVRIGTSPDDLRPYAEGMALKPHTRYYWNVTVWDGEGRPCATSETASFETAKFDPSDWSASWITDHKDKEFEPAPLFRKSFPVGKEVKDARVYVASAGYHELFINGERVGTNYLDPGYTHFDKRILYVTHDVTSLLKQGDNAVAAVLGNGWYNEQSVAVWNFHEARWRDRPRLLCELRITYTDGTTEVIGSDETWKTSTGAYTYNNIYSGDKFDARLEEAGWKTAHFDDSKWEAALPAQAPAPLLVAQQMPGIRITEEVRPVSMKRFSDQLYVYSFPKNMSGLCRLKVKGEAGTRITLKHGELLKKDGRLEQGNINVYYHPVKPDEVFQMDVFTLKGTGEEEIFMPSFSYHGFQYVEVESSRPVTLTEENLTGLFMHTDVRPSGSFACSNPLLNKIWEATMQAYRSNLHSIPTDCPQREKNGWTADAHIAIDLGLLGFDGITLYEKWMDDIIDNQREAGEISGIIPSSGWGYGEWPGPVWDAVMFIIPNALYDYYGESRSIERLYPTMLRYLDYLKTKEKDGYLPFGLGDWVYWKATTNNEYTSTAYYYLDYKLMARFASLLGKDAAPYQEKANTLKSLINQKFFNAETGVYAEGTQTAQALALYLGLVPEGKEQLVADKLREVVAGNNYFLDFGLLGSKTVPAMLTKYGYIEDAMKMITKTEAPSWGYWVETMGYSTLPETWTLSPKFADASLNHVFMGDVSAWMMNQLAGINHDDSAPGFRHIRITPHFVKELDWAKGEYHSVRGRIASEWKREGDKVMLTVTIPADCSADIVVGDQTETVSAGTHTFTYPA
B2: 1074 (protein, listed as Actinoplanes sp.)
chain: MKGSFAVLAAALLLMPVSAPTAAAEPAVTLDGAHWIWYPEGDPATSAPAATRYLRRAFTVAASDIATAQLVVTGDDTIDVWVNGVRLAGSPRAADSWKRAVRVDLAGSLHPGSNTVALAARNTGGPAGVLGRLHAGSVDLVTDGSWRAATGVPENWADPAFSDVAWTTAKDLGAYGGGPWGAGVALPDPAAASPVSVTDLTVNRQADPVGVDTPRFGWRLAAGTGGQMQGRYQLTVGSTAGAADVWDSGIVASTASRDIGYSGPALGANRTYFWRVRVWDAQGRPSAWSAGARFDTGIALTAAFVGAPPAGDLSGADWIWYPEGDPATSAPAATRYFRRTVTLATSTTLVVAGDDTADVWVDGTQISASPRVTDSWKTAATVTVPAGTRTIAIAASNTTVGPAGVIAKLGGIVTDGSWRSATAAPGGWQQPGFDDSGWLAAKVLAAYGSGPWGGQVLVPAAAPYLRKGFAVTRPVARARLFATALGLHDTYLNGARVGTERLAPGWTDYTKRVQYRGYDVTAALRLGDNALAAQIGHGWYSGNIGFAGSRRYGTQPWYAAQLIIEYTDGTSATVQTDGSWRTAPGNILGDDLYAGETQDARLIRSGWNTAGFDDSDWVPVTVQNGARPTLVPQVDPGVTVQQELRPVAVTQPKPGVFIADLGQNFTGWDRLRVSGPAGTTVTLRHGEILNADGTLYTANLRAAQATDRFTLAGTGTETFEPRFTVHGYRYVEITGFPGTPDADSLTGLAAWTGGAATGMFTSSDSTLNQVQRAILWGARSNLLSIPTDCPQRDERLGWTGDIAAFVATSTFNFDTYGLLAKFATDLTDAQHSDGAFTDVAPDVLGGAGKAGWGDAGVIVPYTVWQRFGDLAPADRNFAAMARWVDYLRSTAGADLIRNQDTYGDWLNVDDGTGNDLTSTAFFGWSARLVSRMAAATGRTAQAATYGTLADQIAAAFTGRFVHADNTVGTGSETGYVLALAFGLVPGDRVQAVADRLAAKVASRNGHLSVGFMGVENLLPVLADHGHADVAYRILQQPDYPGWGYMIARGATTIWERWDGIRPDGSLQDPGMNSFNHYGLGSVGDWLYREVGGVAPAAPGYAQVLLAPKPGGSLTSASAELTTTFGRVRSAWSRSGSAVTLQVVVATGTTATVRVPGTAVTSAPAEAVPVGGTSYVVGAGSYTFTSTL
B3: 1046 (protein)
chain: MQYWQKQLKFTSIILLSGLTLGGITACAEQDIAQLQNVEAEPSPVEQEAQTSLATSFKHPPHEAKPLTWLHAMSGNMSKAGLTKDLEAIAEAGLGGTMLFNVTQGIPLGKVKFNSTEHIDLIGHLAAESQRLGLSFGMHNCDGWTSSGGPWVTPEHSMKQITYNETIVDGGNVNIKLAQPATMLDYYQDIAVIAYPSLATEITDFTVKPKITASDANFDAQIVQNNNLTDYSSITPSNEQPGWLQFSYQQPYTLRLIDMLLHSGRGLNVSLHISDDGKNFKQVDNLTLRRPGKSTYAFDEAFAGYTAKHFRLVSNKVMHIKELRLSSTPSLDNFSGRTAASRSDYQEFEDIGKPSAELVIDPESVINLTASLNSEGQLITTLPAGKWTIMRFGYTSTGAVNIPASREGTGLEVDKFSKAAFKSHYDAYITNVIDKLKVVAPNALYSIEIDSYEVGAQNWTHNYEQLFQAQFGYDLVPFLPLFAGKFVESPTVAEAVLWDTRDLNNKLITENYYGYFRELAHQDGIKTYLEPYGSGPFNELDVASKADLPMGEFWLDNNNFRLSASASAAHIYNKPIVAAEAFTQFPRNNWLFHPAEGKADSDKSWALGVNQHVFHRFAHQANTHVMPGMTMNRWGAHMDRTQTWWTVAGKPWFKYVARGQQLLRTGHNVADVLWFLGDATPTTCPEKDPISAVLPLNINYDCLNSEVLQRLSVEDGKVTLPHGSQYKILVLNNHQTLTLKSLKKIYQLAQQGAVIVGTPVEQLAGRFVSEQQRQELKMMVDYIWSQPTTYNISTKAKTSHGHTGVFPTHEIAKTSKIDWQKIYNEQNWPLDLAIKNADKFYFTHRRSAQYDIYFIFNDSAQAQVFDARFNISGKIPELWDADTGNITQLGAFSDNGQITRVPLKLGAYDSVFVVFEKSSKAVTALKPEFVLSQPELDVVLDAQQQPKVIKTTHEAIEITGAWQVEFDKFYGLDKSFTFEQLIDWKLHPEQTIQDYSGTATYQKTIDVPAELLADNKQIFLDLGKVKVAANVYLNDKLAGSAWHAPYRIDISNFVQAGKNKLTIKVANLWVNRLLADRKLPDTSGFKIARWQNPITPMPQWYVDNQPAPKSERVTFVTQVFMDDNEPRQSSGLIGPVQLSVRSKTQL
modifications: Catenovulum agarivorans
B4: 1015 (protein)
chain: MITIIGLGVEHSERGCVTDNPHPRFSYAVRSDRSDVVVDGARLAVGDWTCEAGDQTAVAYDGKPLEPFTEYHVTLDVSTADGEHAHAETTFETGRLGQGWQGRWISDAGYDFVEKKVSPVPMMFRKPFTCDPTKSVRKARLYATAMGVYDFACDGKRIGDRYFAPGFTSYKTNLQYQTYDVTDMVGAGAVHTLLATVAGGWAVGSFVFTRKNRVSADRQALLAELRIEYTDGSVEVIGTDASWEVSESGPVRMADLYDGETYDAMMDPGADGSRCKDWRHASLENPRSRPRHIEADYGAGVVAHETLSPVSVARRAGGELVYDFGQNLAGVVRMRIANGRAGQTVVVRHAEILNPDGSLNTAFLRTAKATATYRCADADGFPEGVQEYGPRFTYMGFRYVSVRGVAEDDLRIEAVVLHSDLRPIGDFACSDERLNQLQHNIVWGAKSNLMDIPTDCPQRDERMGWTGDIAVFAPTACLNFDMSRFLEKWLRDVKAEQLKTGGIPNTVPVQGYGFPATMPEMAIDWWGDACVLVPWAVYRSSGDATVLHDMYDTMKRYVKACRFWAGLIGFGKSRYIWNTPSMLHFGDWVAPDVPKMSQWQKRAKWTATASLNNTSRTLARVAEVLGYDEDARAYDELADKVADAYCSVLTDGNGRLDNEFQTGYVLPLYLNMFPETVRGNAVDHLVKLIEDNDYCIGTGFPGTPYILFALADNGREDVAYRMLLNTACPSWLYEVGMGATTIWERWDGLDENGECPIGDDGTDLMISYNHYASGAVGAFLYQRVAGIEAIGAAYRSFRVRPVLGGGLTWAKAHVDTPYGRVGSAWSLDGGRFSITVEVPVGTTCELALPDGTTMQLSNGVHTATCEM
modifications: Bifidobacterium moukalabense
B5: 1054 (protein, listed as Streptosporangium roseum)
chain: MEQAVAAALAVTDLRMDGRTEPLGLGESAPRFSWRLAAPGRGRAQSAYRIVVGRECDPLAEGAEVLWDTGEVGSSRTFDIAYEGAELRPRTRYQWRARAADEAGTWGDWSPAHWFETGLGDVTGWTADWIGTPAVPGSQRLPSLENVPRIWAAGPLGPSEARTGGFRTRFTVPGGARPLSAWLVIGGALDPQVHLNGMPVAGEVRDGAFVADAGDLIDSGENVLALRAGAVDGLPGGLCVRLEVVLEGRPALPQLVPVAGESAVTVTSDGRWRAAGEPAPGFEQPGFDDTGWSLAEEVGLHGDPPRGREPVADRPSPYLRREFDVPRPVSRARLYATALGVYELHLNGMRVSADHLAPGWTDYRHRVTYQTYDVTALVAEGGNALGAVLADGWYAGNISWFGSFQYGRRLALRAELEIVHDDGTTTRLRTDSDWRAGSGAIRYADLQNGERQDLAAEPVGWTACGFDDSGWLPAVPVSPPAGRPAAAVAPPVRVHEELAPRAVWESSPGVWIADFGQNVVGWVRLTARAGRDRPVVLRHAEVLDHEGALHLANLRSARATDEFLPRGGAGAETFEPRFTFHGFRYVEVSGLREPLTSDAIRARVAYAAMEPAGEFACSDERLNRLQGNIVRGQRGNFLSIPTDCPQRDERLGWTGDIWAFAPTALFNYDARAFLHSWLTDVVDAQAEDGAVTHVVPDVLSGRGLSPNPREAGSPGWGDAIVMLPWALYRLCGDADAVARYYGPMRRWLAYLDSRSTDGIFPDEGFGDWLSIGADTPKRLVGTAIFALSARQLAELAAALGRADDERACLEVYARVRRAFRAAFVQGPGVVESGTQTAYVLAITAGLLEEAELPRAAARLVRDIEARGGHLSTGFLGTPFLLDALTRSGHLGTAYRLLLQESFPSWLYPVVHGDATTMWERWDGWSHHRGLQDPGMNSFNHYAYGAVGAWMYETIGGLAPASPGYRAIVVRPRPGGELTWARTAYRTRHGRVEIAWRREGGDFTLEVRVPPNTRAEVWVPGGPAGVTESGRPAAESPGVALDRVVDGHAVYEVGSGSYAFHV

A short description of one experiment: Experiment 6-1: screening of rhamnosidases for derhamnosylation of saponins in treated bark extract (2%), QS-17 2310 to QS-18 2164 (PAR %). The conditions noted are these: TBE 2%, pH 7.5, 30 degC, 18 h; TIC peak area ratio percent, LCMS/MS; negative controls 3.061, 2.429. The experiment is classed as biochemical, Quillaja saponaria.
Take B1: the “Peak57 (PAR %)” value came out at 2.473%.
Same read-out and setting: as for B2, the figure is 1.681%; as for B3, 2.480%.
As for B4, the “Peak57 (PAR %)” value is 3.048%.
On the same count and under the same terms, to B5 belongs 2.487%.

A short description of another experiment: Experiment 6-1: screening of rhamnosidases for derhamnosylation of saponins in treated bark extract (2%), QS-17 2296 to QS-18 2150 (PAR %). The conditions noted are these: TBE 2%, pH 7.5, 30 degC, 18 h; TIC peak area ratio percent of rhamnosylated starting saponin to derhamnosylated product, LCMS/MS; negative controls 4.876, 5.225. Type of experiment: biochemical, Quillaja saponaria.
Take B1: the “QS-17 (PAR %)” value is 4.201%.
Regarding B2, the “QS-17 (PAR %)” value amounted to 4.443%.
For B3, the “QS-17 (PAR %)” value is listed as 4.051%.
Take B4: the “QS-17 (PAR %)” value came out at 4.132%.
Still for that read-out and setting: to B5 belongs 4.348%.

The nature of another experiment: Experiment 6-1: screening of rhamnosidases for derhamnosylation of saponins in treated bark extract (2%), desglucosyl-QS-17 2134 to QS-21 1988 (PAR %). The settings on record: TBE 2%, pH 7.5, 30 degC, 18 h; TIC peak area ratio percent, LCMS/MS; negative controls 2.719, 2.158. Type of experiment: biochemical, Quillaja saponaria.
As for B1, the “Peak75 (PAR %)” value is given as 2.240%.
Still for that read-out and setting: to B2 belongs 2.312%; to B3, 2.446%.
The same measure, in the same setting: to B4 belongs 2.969%; to B5, 2.160%.

Another experiment can be described thus: Experiment 6-1: specificity of rhamnosidases towards other rhamnose residues (C3 saccharide rhamnose, C28 saccharide rhamnose). Type of experiment: biochemical, Quillaja saponaria. The conditions noted are these: TBE 2%, pH 7.5, 30 degC, 18 h; LCMS/MS; negative controls 0.18, 0.17.
Turning to B1, the “ratio PP/QS-21” value was found to be 0.17.
Take B2: the “ratio PP/QS-21” value is reported as 0.18.
Same read-out and setting: to B3 belongs 0.13; to B4, 0.15.
Regarding B5, the “ratio PP/QS-21” value is 0.17.
